Assay results from publication PMC6555819, “Comprehensive study of nuclear receptor DNA binding provides a revised framework for understanding receptor specificity”.
Positions count from the first letter of the chain named.

B1: NRC3_wobSeed133_DR5_T23C_o1 (dsDNA)
DNA 1: GCCGTCCAAGGTCAATGCTAGGCCAGTGAAAGCATTGCGATTGACAGCGTAGAATGAAGG
DNA 2: CCTTCATTCTACGCTGTCAATCGCAATGCTTTCACTGGCCTAGCATTGACCTTGGACGGC
B2: NRC3_wobSeed18_DR0_G16T_o1 (dsDNA)
DNA 1: GCGATACAGGGTCAATGCCAGAGTACGCGTATTGATGCGATTGACAGCGTAGAATGAAGG
DNA 2: CCTTCATTCTACGCTGTCAATCGCATCAATACGCGTACTCTGGCATTGACCCTGTATCGC
B3: NRC3_wobSeed73_DR3_G26C_o1 (dsDNA)
DNA 1: GCCAAACTAGGTCACAGAGGTCAAACTCCGTGCGTAGCGATTGACAGCGTAGAATGAAGG
DNA 2: CCTTCATTCTACGCTGTCAATCGCTACGCACGGAGTTTGACCTCTGTGACCTAGTTTGGC
B4: NRC3_wobSeed73_DR3_C22T_o1 (dsDNA)
DNA 1: B3 DNA 1 with C22T, C26G
DNA 2: B3 DNA 2 with G35C, G39A
B5: NRC3_wobSeed5_DR0_A20G_o1 (dsDNA)
DNA 1: GCCCTTACGGGTCAAGGTTGTAGCACGGGTGGTACGGCGATTGACAGCGTAGAATGAAGG
DNA 2: CCTTCATTCTACGCTGTCAATCGCCGTACCACCCGTGCTACAACCTTGACCCGTAAGGGC
B6: NRC3_wobSeed34_DR1_A15C_o1 (dsDNA)
DNA 1: GCATCGAAAGGTCGCAGGTGAGTATACCCACCCGAAGCGATTGACAGCGTAGAATGAAGG
DNA 2: CCTTCATTCTACGCTGTCAATCGCTTCGGGTGGGTATACTCACCTGCGACCTTTCGATGC
B7: NRC3_wobSeed34_DR1_G6T_o1 (dsDNA)
DNA 1: B6 DNA 1 with G6T, C15A
DNA 2: B6 DNA 2 with G46T, C55A
B8: NRC3_wobSeed3_DR0_G21C_o1 (dsDNA)
DNA 1: GCGCTCGGAGGACAAGGTCACAGCTTTGTCCGTAGAGCGATTGACAGCGTAGAATGAAGG
DNA 2: CCTTCATTCTACGCTGTCAATCGCTCTACGGACAAAGCTGTGACCTTGTCCTCCGAGCGC
B9: NRC3_wobSeed100_DR4_C12G_o1 (dsDNA)
DNA 1: GCCCTACTGGGGCACGAAAGGTCATTGATTCAGTGAGCGATTGACAGCGTAGAATGAAGG
DNA 2: CCTTCATTCTACGCTGTCAATCGCTCACTGAATCAATGACCTTTCGTGCCCCAGTAGGGC
B10: NRC3_wobSeed100_DR4_C13G_o1 (dsDNA)
DNA 1: B9 DNA 1 with G12C, C13G
DNA 2: B9 DNA 2 with G48C, C49G
B11: NRC3_wobSeed100_DR4_C15T_o1 (dsDNA)
DNA 1: B9 DNA 1 with G12C, C15T
DNA 2: B9 DNA 2 with G46A, C49G
B12: NRC3_wobSeed44_DR1_T13C_o1 (dsDNA)
DNA 1: GCTGAATGAGGTCAAAGATCAGGGAACGTGGCGTCGGCGATTGACAGCGTAGAATGAAGG
DNA 2: CCTTCATTCTACGCTGTCAATCGCCGACGCCACGTTCCCTGATCTTTGACCTCATTCAGC
B13: NRC3_wobSeed88_DR3_C7A_o1 (dsDNA)
DNA 1: GCTAGCATAGGTCATGCGGGCCAGTATAGTGTCGGCGCGATTGACAGCGTAGAATGAAGG
DNA 2: CCTTCATTCTACGCTGTCAATCGCGCCGACACTATACTGGCCCGCATGACCTATGCTAGC
B14: NRC3_wobSeed2_DR0_C4T_o1 (dsDNA)
DNA 1: GCCTTAGTTGGTCAAGGTCACACACGCTATAGGTACGCGATTGACAGCGTAGAATGAAGG
DNA 2: CCTTCATTCTACGCTGTCAATCGCGTACCTATAGCGTGTGTGACCTTGACCAACTAAGGC
B15: NRC3_wobSeed26_DR1_T8C_o1 (dsDNA)
DNA 1: GCTCTAGCTGGTCAAAGGTCACACACTCGAAATGCGGCGATTGACAGCGTAGAATGAAGG
DNA 2: CCTTCATTCTACGCTGTCAATCGCCGCATTTCGAGTGTGTGACCTTTGACCAGCTAGAGC
B16: NRC3_wobSeed93_DR3_T26A_o1 (dsDNA)
DNA 1: GCAGTCAAAGTTCATCTAGGTAACGAAAGATATGCTGCGATTGACAGCGTAGAATGAAGG
DNA 2: CCTTCATTCTACGCTGTCAATCGCAGCATATCTTTCGTTACCTAGATGAACTTTGACTGC
B17: NRC3_wobSeed93_DR3_A23T_o1 (dsDNA)
DNA 1: B16 DNA 1 with A23T, A26T
DNA 2: B16 DNA 2 with T35A, T38A
B18: NRC3_wobSeed109_DR4_G25T_o1 (dsDNA)
DNA 1: GCCGTCCAAGGTCATAGGAGGTCATTGAAGACAGATGCGATTGACAGCGTAGAATGAAGG
DNA 2: CCTTCATTCTACGCTGTCAATCGCATCTGTCTTCAATGACCTCCTATGACCTTGGACGGC
B19: NRC3_wobSeed74_DR3_C15T_o1 (dsDNA)
DNA 1: GCTCTAGTTGGTCATGGAGGTCACACACGACGGGTAGCGATTGACAGCGTAGAATGAAGG
DNA 2: CCTTCATTCTACGCTGTCAATCGCTACCCGTCGTGTGTGACCTCCATGACCAACTAGAGC
B20: NRC3_wobSeed21_DR0_G17C_o1 (dsDNA)
DNA 1: GCCGTCAAAGTTCAAGCTAACGTAACAGAAAGCAGCGCGATTGACAGCGTAGAATGAAGG
DNA 2: CCTTCATTCTACGCTGTCAATCGCGCTGCTTTCTGTTACGTTAGCTTGAACTTTGACGGC
B21: NRC3_wobSeed122_DR5_G10T_o1 (dsDNA)
DNA 1: GCGCTAGTTTGTCAGTAAAAGGTCACACACCGGTCGGCGATTGACAGCGTAGAATGAAGG
DNA 2: CCTTCATTCTACGCTGTCAATCGCCGACCGGTGTGTGACCTTTTACTGACAAACTAGCGC
B22: NRC3_wobSeed122_DR5_C4A_o1 (dsDNA)
DNA 1: B21 DNA 1 with C4A, T10G
DNA 2: B21 DNA 2 with A51C, G57T
B23: NRC3_wobSeed46_DR1_G13T_o1 (dsDNA)
DNA 1: GCTTACCAAGGTTAAAGGTCGTTGATGCACGCCTTGGCGATTGACAGCGTAGAATGAAGG
DNA 2: CCTTCATTCTACGCTGTCAATCGCCAAGGCGTGCATCAACGACCTTTAACCTTGGTAAGC
B24: NRC3_wobSeed97_DR4_T28C_o1 (dsDNA)
DNA 1: GCCAAACTAGGTCACGAAAGGTCAAAGCCGAATGACGCGATTGACAGCGTAGAATGAAGG
DNA 2: CCTTCATTCTACGCTGTCAATCGCGTCATTCGGCTTTGACCTTTCGTGACCTAGTTTGGC
B25: NRC3_wobSeed97_DR4_T22G_o1 (dsDNA)
DNA 1: B24 DNA 1 with T22G, C28T
DNA 2: B24 DNA 2 with G33A, A39C

Target: RXRa (Homo sapiens, UniProt P19793)
Assay: no ligand; PBM; 180 nM; PBS pH 7.4, 2% milk, 0.02% Triton X-100, 1 mM DTT, BSA, 0.4 mg/ml salmon testes DNA
Details: tags: His cleaved; chain copies: 2; label: surface-attached array probe

Sequence of RXRa (P19793 whole entry): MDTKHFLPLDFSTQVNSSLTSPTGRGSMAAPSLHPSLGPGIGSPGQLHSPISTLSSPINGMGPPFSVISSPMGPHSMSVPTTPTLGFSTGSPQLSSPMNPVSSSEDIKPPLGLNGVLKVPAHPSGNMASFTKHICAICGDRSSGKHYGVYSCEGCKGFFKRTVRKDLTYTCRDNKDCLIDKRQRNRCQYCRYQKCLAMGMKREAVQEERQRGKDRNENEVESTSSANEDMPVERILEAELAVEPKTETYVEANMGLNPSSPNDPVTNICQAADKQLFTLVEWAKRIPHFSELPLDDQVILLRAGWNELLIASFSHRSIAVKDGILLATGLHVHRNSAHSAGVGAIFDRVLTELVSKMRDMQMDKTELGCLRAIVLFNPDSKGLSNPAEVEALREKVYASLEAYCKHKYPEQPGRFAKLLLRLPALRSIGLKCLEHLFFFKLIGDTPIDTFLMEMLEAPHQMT

Binder | binding signal
B1 | 4.95 PBM z-score against 500 random probes
B2 | 4.72 PBM z-score against 500 random probes
B3 | 8.89 PBM z-score against 500 random probes
B4 | 5.19 PBM z-score against 500 random probes
B5 | 4.67 PBM z-score against 500 random probes
B6 | 5.33 PBM z-score against 500 random probes
B7 | 4.9 PBM z-score against 500 random probes
B8 | 4.86 PBM z-score against 500 random probes
B9 | 5.1 PBM z-score against 500 random probes
B10 | 4.57 PBM z-score against 500 random probes
B11 | 4.52 PBM z-score against 500 random probes
B12 | 7.98 PBM z-score against 500 random probes
B13 | 4.81 PBM z-score against 500 random probes
B14 | 5.06 PBM z-score against 500 random probes
B15 | 8.94 PBM z-score against 500 random probes
B16 | 5.16 PBM z-score against 500 random probes
B17 | 4.47 PBM z-score against 500 random probes
B18 | 7.89 PBM z-score against 500 random probes
B19 | 5.28 PBM z-score against 500 random probes
B20 | 4.62 PBM z-score against 500 random probes
B21 | 5.24 PBM z-score against 500 random probes
B22 | 4.99 PBM z-score against 500 random probes
B23 | 7.99 PBM z-score against 500 random probes
B24 | 8.92 PBM z-score against 500 random probes
B25 | 4.76 PBM z-score against 500 random probes
